In publication PMC4058522, “Structural Basis for Phosphorylation-Dependent Recruitment of Tel2 to Hsp90 by Pih1” (Structure(London, England:1993), 2014):

Target: T1, Tah1 (yeast, full-length) (yeast), P25638
T1 chain: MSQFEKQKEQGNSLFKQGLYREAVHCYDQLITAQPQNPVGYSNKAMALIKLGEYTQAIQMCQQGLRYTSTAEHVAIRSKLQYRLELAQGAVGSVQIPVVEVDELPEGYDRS
Assay: cross-linking; lysine-specific crosslinker DMS, in solution, SDS-PAGE
Conditions: remark: other sources report otherwise

stoichiometry N: 2
B1: Tah1 (yeast, full-length), P25638 1-111 (natural protein)
chain: MSQFEKQKEQGNSLFKQGLYREAVHCYDQLITAQPQNPVGYSNKAMALIKLGEYTQAIQMCQQGLRYTSTAEHVAIRSKLQYRLELAQGAVGSVQIPVVEVDELPEGYDRS
